Laboratory results as given in PMC4380446.

Experiments:
[1] = tested on: purified haemagglutinin H9 (H9-HA) (Influenza A virus H9N2 (avian; strain not given in material)); assay: capillary electrophoresis
[2] = tested on: haemagglutinin on whole H9N2 virus (Influenza A virus H9N2 (avian; strain not given in material)); assay: capillary electrophoresis
[3] = tested on: haemagglutinin on whole H9N2 virus (Influenza A virus H9N2 (avian; strain not given in material)); assay: competition ELAA

Sequence | Kd [1] [nM] | Kd [2] [nM] | inhibition of binding [3] [% inhibition]
GCTGCAATACTCATGGACAGCGGGGGTCTCGCCCTCCCGGCGGCCTCGGCGAGCGTCGGCGTCTGGAGTACGACCCTGAA [A6] | 20.6 |  | 
GCTGCAATACTCATGGACAGCCTCCTGGGGTCAGGCTCAGACATTGATAAAGCGACATCGGTCTGGAGTACGACCCTGAA [A9] | 46.2 | 42.5 | 76.3
